Drawing on the supplement of paper PMC10126150, this text covers switch fluorescence ratio for 79 sequences.

± gives the standard deviation of the averaged measurements.

In the data set the test system is ATP. Nature of the data set: switch fluorescence ratio, 500 uM ATP over buffer (Cy3 cluster intensity, sum of 5 cycles each) (fold (ratio)); higher = stronger signal-on switching upon ATP binding; sequences stand for … in TCGTCGGCAGCGTCAGATGTGTATAAGAGACAGTTTTTTTTTTTTTTTTTTTTTTTTT…TC. The conditions noted are these: aptamer strand: ATP DNA aptamer (quencher-CACCTGGGGGAGTATTGCGGAGGAAGG + anchor), 100 nM annealed; ATP concentration: 500 uM. The essentials:
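The quencher-labelled ATP aptamer, at 100 nM, was annealed to Cy3-labelled switching-strand clusters on a modified Illumina MiSeq flow-cell. The clusters were imaged in selection buffer, then after 15 min with 500 uM ATP at 22 °C, and this buffer/ATP cycle ran five times with NaOH stripping and re-annealing between runs. Per-cluster fluorescence ratios, summed target-cycle over summed buffer-cycle Cy3 intensity, were averaged per switch-domain sequence. Clusters outside 100-1000 RFU were excluded.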
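Further: ATP exposure 15 min at 22 °C before imaging.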

As for TTTCTGTGTT, the switch fluorescence ratio turned out to be 1.012 ± 0.0069.

Take CATGCGTTTT: the switch fluorescence ratio is 1.04 ± 0.043.

GCATGTATGG: the switch fluorescence ratio was found to be 0.983 ± 0.044.

Consider AAAGCTTTGA, for which the switch fluorescence ratio was 0.983 ± 0.01.

CTTGGATTCC: the switch fluorescence ratio was 1 ± 0.021.

Consider AGCCATATAG, for which the switch fluorescence ratio is 1.048 ± 0.0066.

As for CTTTGGATCA, the switch fluorescence ratio was 0.9836 ± 0.0055.

Turning to CGAAGACTGC, the switch fluorescence ratio worked out at 1.19 ± 0.12.

In the case of CATGCTACGG, the switch fluorescence ratio turned out to be 1.01 ± 0.016.

Turning to TCGGCTTTGA, the switch fluorescence ratio turned out to be 1.01 ± 0.03.

For GGCGGGGCAC, the switch fluorescence ratio stood at 0.989 ± 0.038.

For the sequence ATGTACAATT, the switch fluorescence ratio turned out to be 1.0917 ± 0.00014.

Turning to CTTTGTTTGA, the switch fluorescence ratio is 0.976 ± 0.0076.

Take GGGGTCTTCC: the switch fluorescence ratio was 1.07 ± 0.041.

With GAGGAAGTTA, the switch fluorescence ratio stood at 1.06 ± 0.097.

Consider AAAGGCCGTG, for which the switch fluorescence ratio is 1.0223 ± 0.00097.

In the case of CTGAACTCGT, the switch fluorescence ratio came to 1.03 ± 0.018.

Take AAGTGTGCCT: the switch fluorescence ratio was found to be 0.983 ± 0.01.

Consider TGAGGGCAGG, for which the switch fluorescence ratio came to 1.023 ± 0.007.

Consider TCAAGAGTTC, for which the switch fluorescence ratio stood at 1.01 ± 0.06.

Regarding ATATAATAGT, the switch fluorescence ratio came out at 0.991 ± 0.015.

For the sequence TTGGTTCGTT, the switch fluorescence ratio is 0.994 ± 0.025.

For GGGGTGGCAG, the switch fluorescence ratio worked out at 0.975 ± 0.027.

GATTTAGTAC: the switch fluorescence ratio was 1.01 ± 0.067.

For the sequence GAGTAAGATC, the switch fluorescence ratio came out at 0.999 ± 0.048.

In the case of TCTCGGATGT, the switch fluorescence ratio came to 0.99 ± 0.039.

For the sequence CGTTTGGCGG, the switch fluorescence ratio was determined as 0.987 ± 0.064.

With GCACGGGCCC, the switch fluorescence ratio was 0.99 ± 0.028.

Take GTGGACAGGG: the switch fluorescence ratio was 1 ± 0.013.

TATGTGGGGG: the switch fluorescence ratio worked out at 1 ± 0.016.

For TTTGTTTGTT, the switch fluorescence ratio stood at 0.986 ± 0.02.

On to GAGGGGGGTT, for which the switch fluorescence ratio worked out at 1 ± 0.027.

In the case of GGGGCCCACG, the switch fluorescence ratio came to 1.002 ± 0.006.

Take CGGGAGAGAC: the switch fluorescence ratio is 1.013 ± 0.0025.

As for ATTAATGGGA, the switch fluorescence ratio is 0.9986 ± 0.0061.

Turning to AGATAGGCGT, the switch fluorescence ratio was 0.9959 ± 0.0056.

Consider GCGATATAGC, for which the switch fluorescence ratio stood at 1.03 ± 0.027.

For TGGGAAGGGT, the switch fluorescence ratio stood at 0.996 ± 0.059.

On to GTTTATTCGG, for which the switch fluorescence ratio is 0.981 ± 0.019.

On to AAACGCATCT, for which the switch fluorescence ratio amounted to 1.1304 ± 0.0008.

Consider GGAACTTGGT, for which the switch fluorescence ratio was found to be 0.928 ± 0.087.

Regarding GCTGTGCGCA, the switch fluorescence ratio was determined as 1.02 ± 0.019.

Consider AGAGTTTGT, for which the switch fluorescence ratio worked out at 0.987 ± 0.014.

For TTTGGTGGCT, the switch fluorescence ratio stood at 1.01 ± 0.015.

As to CGTTTGAAGC, the switch fluorescence ratio is 0.978 ± 0.059.

Turning to TTTTAGGGGG, the switch fluorescence ratio is 1 ± 0.038.

As to CAGTGGAGCC, the switch fluorescence ratio worked out at 1.01 ± 0.034.

On to GACTCATAAT, for which the switch fluorescence ratio is 1.004 ± 0.0015.

On to GGAGTCTAGG, for which the switch fluorescence ratio is 0.994 ± 0.031.

In the case of TTAGTGACGT, the switch fluorescence ratio was found to be 1.037 ± 0.0016.

TGGCGGGGAG: the switch fluorescence ratio is 0.998 ± 0.021.

For GGTTGGAGGC, the switch fluorescence ratio came out at 1.03 ± 0.067.

CTGGGTTCTC: the switch fluorescence ratio is 0.989 ± 0.016.

For GAGAGTGTGT, the switch fluorescence ratio was found to be 0.982 ± 0.011.

Consider GAGCAGGGGT, for which the switch fluorescence ratio turned out to be 1.04 ± 0.063.

For the sequence GGTATTAGGT, the switch fluorescence ratio is 1.01 ± 0.011.

As to TTTTTTTTTG, the switch fluorescence ratio was found to be 0.987 ± 0.025.

For CTCAGTAATT, the switch fluorescence ratio is 1.38 ± 0.046.

On to GTGGGGTAAA, for which the switch fluorescence ratio was found to be 1.01 ± 0.055.

For the sequence TATTTTCACT, the switch fluorescence ratio was found to be 1.05 ± 0.11.

For ATATCAGCGC, the switch fluorescence ratio turned out to be 1.03 ± 0.018.

For the sequence TACGTGATTT, the switch fluorescence ratio came out at 1.14 ± 0.093.

GGGGGGCCGG: the switch fluorescence ratio stood at 0.996 ± 0.033.

Turning to AAGAAGAGGG, the switch fluorescence ratio stood at 1.02 ± 0.021.

As for ACGGTGTTAC, the switch fluorescence ratio worked out at 1.11 ± 0.027.

Consider TTTATTCTG, for which the switch fluorescence ratio turned out to be 0.9873 ± 0.0064.

For TTTTCGATGT, the switch fluorescence ratio stood at 0.994 ± 0.042.

As to GGGTGAGTCG, the switch fluorescence ratio was 1.02 ± 0.037.

TTCTGAGGAT: the switch fluorescence ratio was determined as 0.989 ± 0.042.

Regarding GGCTGGGTGG, the switch fluorescence ratio was found to be 1.01 ± 0.053.

On to GTGGTCCGGG, for which the switch fluorescence ratio stood at 0.979 ± 0.037.

As for CAGACGTAGG, the switch fluorescence ratio is 1.01 ± 0.056.

TTCTCGGATG: the switch fluorescence ratio was 0.995 ± 0.015.

In the case of GAAAGTGGGA, the switch fluorescence ratio was found to be 0.988 ± 0.025.

Turning to CTCGGGAGAA, the switch fluorescence ratio was found to be 1.016 ± 0.0039.

Take ACTCATGGCA: the switch fluorescence ratio was 1.09 ± 0.046.

As for GCGTTACGGG, the switch fluorescence ratio came out at 1.002 ± 0.0089.

For the sequence ACACATAGAC, the switch fluorescence ratio is 1.17 ± 0.051.

Regarding GGATTGTCAG, the switch fluorescence ratio is 0.9847 ± 0.0024.
